We go through 120 sequences from the supplement of paper PMC10126150.

The data set has as its system ATP. The data set is described as follows: switch fluorescence ratio, 500 uM ATP over buffer (Cy3 cluster intensity, sum of 5 cycles each) (fold (ratio)); higher = stronger signal-on switching upon ATP binding; sequences stand for … in TCGTCGGCAGCGTCAGATGTGTATAAGAGACAGTTTTTTTTTTTTTTTTTTTTTTTTT…TC. Conditions: aptamer strand: ATP DNA aptamer (quencher-CACCTGGGGGAGTATTGCGGAGGAAGG + anchor), 100 nM annealed; ATP concentration: 500 uM. The essentials:
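For every switch-domain sequence, the fluorescence ratio is the mean of per-cluster values, each being summed target-cycle Cy3 intensity over summed buffer-cycle Cy3 intensity. Clusters outside 100-1000 RFU were excluded. On a modified Illumina MiSeq flow-cell, the Cy3-labelled switching-strand clusters were annealed to 100 nM quencher-labelled ATP aptamer, imaged in selection buffer and then after 15 min with 500 uM ATP at 22 °C. Five such cycles were run, with NaOH stripping and re-annealing between them.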

± gives the standard deviation of the averaged measurements.
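Also: ATP exposure 15 min at 22 °C before imaging.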

With GGTATCTGTT, the switch fluorescence ratio was 0.986 ± 0.016.

For ACCTAGTCGG, the switch fluorescence ratio is 1.01 ± 0.015.

On to CTGGACTGGT, for which the switch fluorescence ratio came out at 0.989 ± 0.012.

For CAAATGAAGT, the switch fluorescence ratio is 1.02 ± 0.018.

As for CCTGGTGGGA, the switch fluorescence ratio turned out to be 0.999 ± 0.014.

Take ATTAAAATGG: the switch fluorescence ratio came to 1.02 ± 0.017.

Take AAGACTTTGT: the switch fluorescence ratio worked out at 1 ± 0.024.

AATTGCACCT: the switch fluorescence ratio came out at 1.22 ± 0.05.

Turning to AAGTTGGGTG, the switch fluorescence ratio worked out at 1 ± 0.025.

On to TTAAATTATC, for which the switch fluorescence ratio came to 1.041 ± 0.0058.

Turning to TAGTGCTTTT, the switch fluorescence ratio worked out at 1.01 ± 0.025.

Consider AGTGGGGCAG, for which the switch fluorescence ratio came to 0.986 ± 0.0071.

Consider CGTGAGGGGC, for which the switch fluorescence ratio turned out to be 1.028 ± 0.01.

In the case of AAATGGCCGG, the switch fluorescence ratio amounted to 0.996 ± 0.024.

As to TTCTTCATTT, the switch fluorescence ratio is 1.22 ± 0.26.

Turning to GCCGGCAAAT, the switch fluorescence ratio is 0.995 ± 0.051.

On to GACGTGTTGG, for which the switch fluorescence ratio was 1.01 ± 0.065.

Take TACGACCGTG: the switch fluorescence ratio was found to be 1.01 ± 0.046.

Regarding TTTAGGGGTA, the switch fluorescence ratio is 0.996 ± 0.018.

With ATAAGTGCAT, the switch fluorescence ratio amounted to 1 ± 0.016.

With GTTCTTGAAA, the switch fluorescence ratio was determined as 0.977 ± 0.036.

Turning to AAAGAATTGG, the switch fluorescence ratio is 0.975 ± 0.045.

For GGAGGGGAGC, the switch fluorescence ratio was 0.974 ± 0.056.

Turning to GGGGGAAGCC, the switch fluorescence ratio was 0.98 ± 0.024.

Turning to GAGGGTCTGT, the switch fluorescence ratio was 0.9794 ± 0.0048.

GTTTTAGCGC: the switch fluorescence ratio is 1 ± 0.049.

Regarding CGATTCTTAA, the switch fluorescence ratio came to 0.996 ± 0.011.

For the sequence CAATGAGCCT, the switch fluorescence ratio was 1.04 ± 0.013.

Consider GGTCCGGGCG, for which the switch fluorescence ratio stood at 0.997 ± 0.024.

In the case of TTTTTCGGGC, the switch fluorescence ratio turned out to be 1.08 ± 0.24.

As for TTGGTAGGAG, the switch fluorescence ratio turned out to be 0.985 ± 0.042.

With TTCGTCTACA, the switch fluorescence ratio was 0.98 ± 0.021.

For the sequence GTAGTCGTAC, the switch fluorescence ratio turned out to be 1.11 ± 0.064.

For AGGGAAGCGG, the switch fluorescence ratio worked out at 0.982 ± 0.047.

Consider GTAGGGATAG, for which the switch fluorescence ratio is 1.02 ± 0.057.

As to TTTCGAGGGG, the switch fluorescence ratio amounted to 1.02 ± 0.054.

Regarding TTTTTCTACA, the switch fluorescence ratio is 1.11 ± 0.12.

Take TTAAAATACA: the switch fluorescence ratio was 1.1 ± 0.14.

In the case of TGCGGAGTAC, the switch fluorescence ratio turned out to be 1.33 ± 0.14.

As for CGGGATGGGG, the switch fluorescence ratio was 1 ± 0.041.

As to ATGTAACGTT, the switch fluorescence ratio was determined as 1.006 ± 0.0088.

For the sequence TCTTGGTA, the switch fluorescence ratio was 0.959 ± 0.031.

AAATGCACAC: the switch fluorescence ratio was 1.107 ± 0.0021.

Consider TGTTTAGGGT, for which the switch fluorescence ratio amounted to 0.997 ± 0.029.

As for TGGGGATCGT, the switch fluorescence ratio is 0.982 ± 0.026.

Consider TGCAAGGTTT, for which the switch fluorescence ratio stood at 1.05 ± 0.1.

In the case of GCGTGTATGG, the switch fluorescence ratio turned out to be 1.03 ± 0.03.

On to GGGGGATGTG, for which the switch fluorescence ratio stood at 1.012 ± 0.004.

In the case of TGAAAAAAAT, the switch fluorescence ratio was determined as 1.05 ± 0.058.

TTTTTTTAGT: the switch fluorescence ratio was 0.996 ± 0.022.

With TCTCGTAAAT, the switch fluorescence ratio is 1.034 ± 0.01.

Turning to GGGCATCTAG, the switch fluorescence ratio is 0.9863 ± 0.0013.

On to ACACAGAGTT, for which the switch fluorescence ratio was found to be 1.03 ± 0.014.

Turning to TTGTGTTGGC, the switch fluorescence ratio was 1.02 ± 0.038.

Take TAGAGGGGAG: the switch fluorescence ratio came out at 1.02 ± 0.022.

GGGGAATACG: the switch fluorescence ratio stood at 1.11 ± 0.048.

Take ACGCATTCAT: the switch fluorescence ratio came out at 1.14 ± 0.027.

On to GGAATAGGGA, for which the switch fluorescence ratio worked out at 0.982 ± 0.052.

With GGTGGTCGAG, the switch fluorescence ratio came to 0.989 ± 0.02.

As to TTGTTTGGGA, the switch fluorescence ratio came to 1.02 ± 0.034.

GGAGAATTTT: the switch fluorescence ratio worked out at 1.04 ± 0.049.

Take AGCGGGGGGA: the switch fluorescence ratio was 1.01 ± 0.025.

Take AGGCTAGGGC: the switch fluorescence ratio came out at 0.993 ± 0.022.

Turning to AAGCATCACG, the switch fluorescence ratio is 1.07 ± 0.011.

Consider AAGTGGGAAC, for which the switch fluorescence ratio amounted to 1.02 ± 0.016.

Turning to CCGCATGCTT, the switch fluorescence ratio was found to be 2.76 ± 2.

Regarding TTATGGGTCG, the switch fluorescence ratio came to 0.99 ± 0.034.

As to CGTCCAGTTC, the switch fluorescence ratio was 1.08 ± 0.023.

Take ACACATTTTT: the switch fluorescence ratio is 1.011 ± 0.01.

Consider ATCATCGCAG, for which the switch fluorescence ratio stood at 1.08 ± 0.058.

Take CTTGAGGGGT: the switch fluorescence ratio was found to be 0.971 ± 0.0099.

AAAGTTTCGT: the switch fluorescence ratio worked out at 1.01 ± 0.018.

GTTATTTTAG: the switch fluorescence ratio is 0.988 ± 0.037.

As for AGATCGAGTA, the switch fluorescence ratio worked out at 0.989 ± 0.033.

Turning to TAAAGTGCGG, the switch fluorescence ratio was 1.03 ± 0.058.

In the case of ACTCGGGTGG, the switch fluorescence ratio worked out at 1.019 ± 0.0096.

Consider GGGGTACTTG, for which the switch fluorescence ratio amounted to 1.01 ± 0.02.

GGGGGGGAGC: the switch fluorescence ratio worked out at 1.01 ± 0.033.

As for TATTATTTGG, the switch fluorescence ratio is 1 ± 0.034.

On to GTTGCTATGA, for which the switch fluorescence ratio came to 1.02 ± 0.017.

As to TTTTGGTAGC, the switch fluorescence ratio is 1.01 ± 0.017.

As to AGCCGTCAAC, the switch fluorescence ratio was found to be 1.05 ± 0.041.

ATGGATATTA: the switch fluorescence ratio stood at 1.03 ± 0.046.

Regarding CTATACTGAG, the switch fluorescence ratio worked out at 1.05 ± 0.045.

For the sequence ACCTACCTCT, the switch fluorescence ratio amounted to 1.48 ± 0.14.

In the case of TGCCAGTTGT, the switch fluorescence ratio turned out to be 1.006 ± 0.0076.

As to CACGGGCCCT, the switch fluorescence ratio was found to be 1.02 ± 0.017.

AAGGGTTATT: the switch fluorescence ratio is 1.15 ± 0.16.

Regarding GGGAAATAGA, the switch fluorescence ratio came out at 1.004 ± 0.0088.

GGGTACAGGG: the switch fluorescence ratio was determined as 1 ± 0.02.

Turning to AAGTAGACTG, the switch fluorescence ratio came out at 0.996 ± 0.11.

Turning to GGGTAAATGT, the switch fluorescence ratio came to 0.9908 ± 0.0024.

TGGGGATTAC: the switch fluorescence ratio amounted to 0.983 ± 0.012.

Regarding AGAGTTACCG, the switch fluorescence ratio was 1.04 ± 0.017.

Take TCGAATATTG: the switch fluorescence ratio was found to be 0.9849 ± 0.004.

On to GGAAGTAGGT, for which the switch fluorescence ratio was determined as 0.988 ± 0.02.

With AGATAGTTGT, the switch fluorescence ratio came out at 1.01 ± 0.016.

Regarding TTGGACGGTT, the switch fluorescence ratio came out at 1 ± 0.015.

For the sequence AGGGGGCAAC, the switch fluorescence ratio amounted to 1.04 ± 0.03.

Take CGGGAGTCAG: the switch fluorescence ratio came out at 1 ± 0.021.

GCTTGAGTTG: the switch fluorescence ratio was 1.0068 ± 0.0004.

In the case of GCTTCAGTGA, the switch fluorescence ratio is 1.02 ± 0.019.

TGCTTAAGTT: the switch fluorescence ratio is 0.999 ± 0.021.

For GCTCGGTTTG, the switch fluorescence ratio was found to be 0.97 ± 0.045.

Regarding AACACATGCG, the switch fluorescence ratio was 0.9936 ± 0.0015.

In the case of GGGTACGCAG, the switch fluorescence ratio was found to be 1.01 ± 0.029.

Turning to CATACCCAAA, the switch fluorescence ratio amounted to 1.05 ± 0.039.

Consider AGGATGTTTT, for which the switch fluorescence ratio came out at 0.995 ± 0.039.

As to TTCTATTGGT, the switch fluorescence ratio was determined as 0.9828 ± 0.0023.

As for TTCGTCGCTG, the switch fluorescence ratio came to 0.999 ± 0.037.

Take GAGAGGAGAG: the switch fluorescence ratio was found to be 0.998 ± 0.035.

TAAAGTTTGC: the switch fluorescence ratio stood at 0.995 ± 0.017.

For the sequence TATTCAATGG, the switch fluorescence ratio was found to be 1.02 ± 0.074.

For ATAAGTACTC, the switch fluorescence ratio came to 1.28 ± 0.1.

Consider GTCGGGGGGT, for which the switch fluorescence ratio came to 1 ± 0.025.

As for TTCGGGGTGT, the switch fluorescence ratio was 1.01 ± 0.044.

Consider GGGCAAATTC, for which the switch fluorescence ratio was determined as 1.08 ± 0.02.

Take TGCCTAATTG: the switch fluorescence ratio was 0.977 ± 0.026.

As for TTGGAATATT, the switch fluorescence ratio was found to be 0.9812 ± 0.0027.

Consider GACCGAAAAT, for which the switch fluorescence ratio worked out at 1.055 ± 0.0015.
